Consider 2 substances from publication PMC8207546.

Data set [1] can be described thus: in vitro fusion of GFP-LC3 and LAMP2B-mCherry vesicles. The following applies: glycan gained; control: non-O-GlcNAcylated His-GRASP55.
A short description of data set [2]: LC3-LAMP2 co-IP with added recombinant GRASP55. To be noted: glycan gained; control: non-O-GlcNAcylated His-GRASP55 (coexpressed with GST).

On to GRASP55: O-GlcNAcylated His-GRASP55, for which the “other: autophagosome-lysosome fusion activity” value in data set [1] is given as “decreases”.

In the case of “GRASP55: O-GlcNAcylated His-GRASP55 (coexpressed with GST-OGT)”, the “other: bridging of LC3-LAMP2 interaction” value in data set [2] is listed as “decreases”.
